Where a chain is given by its changes, count along the chain named. Numbers in names are those of the source. One block for each binder: values may come before it.
Biological target: DPP9, short isoform (DPP9S), co-expressed with CARD8 for cryo-EM (UniProt Q86TI2-1 1-863)
Assay: cryo-EM structure

DPP9, short isoform (DPP9S), co-expressed with CARD8 for cryo-EM, sequence (Q86TI2 whole entry, canonical isoform): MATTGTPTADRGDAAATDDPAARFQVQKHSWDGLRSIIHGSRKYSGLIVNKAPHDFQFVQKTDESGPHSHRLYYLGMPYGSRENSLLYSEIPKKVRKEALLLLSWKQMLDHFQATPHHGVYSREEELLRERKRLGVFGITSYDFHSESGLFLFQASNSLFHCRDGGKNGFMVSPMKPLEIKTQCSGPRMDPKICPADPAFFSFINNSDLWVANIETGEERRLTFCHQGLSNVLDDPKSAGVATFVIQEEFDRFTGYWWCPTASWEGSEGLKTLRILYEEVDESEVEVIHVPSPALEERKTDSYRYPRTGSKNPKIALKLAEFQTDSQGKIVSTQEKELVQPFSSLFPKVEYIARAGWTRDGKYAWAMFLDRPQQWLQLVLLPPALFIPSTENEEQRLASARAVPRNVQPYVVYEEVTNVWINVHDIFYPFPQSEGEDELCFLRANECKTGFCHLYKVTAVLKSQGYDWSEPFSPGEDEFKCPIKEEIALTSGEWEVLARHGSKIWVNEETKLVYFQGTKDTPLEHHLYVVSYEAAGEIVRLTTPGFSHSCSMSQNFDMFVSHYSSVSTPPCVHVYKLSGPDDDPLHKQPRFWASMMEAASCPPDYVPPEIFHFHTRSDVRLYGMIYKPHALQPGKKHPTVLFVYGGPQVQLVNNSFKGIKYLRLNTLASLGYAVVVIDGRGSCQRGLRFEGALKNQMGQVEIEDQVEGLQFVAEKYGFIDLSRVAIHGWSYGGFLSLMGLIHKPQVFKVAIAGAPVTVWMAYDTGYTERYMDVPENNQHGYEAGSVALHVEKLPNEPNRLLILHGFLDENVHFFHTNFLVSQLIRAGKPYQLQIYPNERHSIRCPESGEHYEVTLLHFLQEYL

binding result: binds
B1: Full-length CARD8 (T60 isoform), molecule A of the CARD8-DPP9 ternary complex (natural protein, human, UniProt Q9Y2G2-5 1-537, looked up)
chain: MEKKECPEKSSSSEEELPRRDSGSSRNIDASKLIRLQGSRKLLVDNSIRELQYTKTGIFFQAEACVTNDTVYRELPCVSETLCDISHFFQEDDETEAEPLLFRAVPECQLSGGDIPSVSEEQESSEGQDSGDICSEENQIVSSYASKVCFEIEEDYKNRQFLGPEGNVDVELIDKSTNRYSVWFPTAGWYLWSATGLGFLVRDEVTVTIAFGSWSQHLALDLQHHEQWLVGGPLFDVTAEPEEAVAEIHLPHFISLQAGEVDVSWFLVAHFKNEGMVLEHPARVEPFYAVLESPSFSLMGILLRIASGTRLSIPITSNTLIYYHPHPEDIKFHLYLVPSDALLTKAIDDEEDRFHGVRLQTSPPMEPLNFGSSYIVSNSANLKVMPKELKLSYRSPGEIQHFSKFYAGQMKEPIQLEITEKRHGTLVWDTEVKPVDLQLVAASAPPPFSGAAFVKENHRQLQARMGDLKGVLDDLQDNEVLTENEKELVEQEKTRQSKNEALLSMVEKKGDLALDVLFRSISERDPYLVSYLRQQNL

binding result: binds
B2: CARD8-S297A (autoproteolytic-deficient), full length, for cryo-EM (natural protein, human, UniProt Q9Y2G2-5 1-537, looked up)
chain: B1 chain with S297A

Reference: paper PMC8423358 (Immunity, 2021)
